The target in this assay is interleukin 3 receptor α (IL-3Rα) chain on human pDCs and basophils (human) (UniProt P26951). The assay is described as follows: cell-based or functional assay.
Chain of UniProt P26951 (P26951 20-378): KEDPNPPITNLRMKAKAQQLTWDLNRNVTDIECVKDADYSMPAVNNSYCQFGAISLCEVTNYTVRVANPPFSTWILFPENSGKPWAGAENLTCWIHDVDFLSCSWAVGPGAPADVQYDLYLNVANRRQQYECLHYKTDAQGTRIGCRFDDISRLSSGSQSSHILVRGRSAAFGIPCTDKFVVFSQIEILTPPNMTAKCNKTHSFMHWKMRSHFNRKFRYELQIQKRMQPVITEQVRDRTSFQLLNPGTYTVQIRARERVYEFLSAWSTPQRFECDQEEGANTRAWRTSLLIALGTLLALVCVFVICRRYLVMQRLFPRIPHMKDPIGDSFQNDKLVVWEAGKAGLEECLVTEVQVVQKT

“ch7G3 (chimeric version of 7G3 with a human IgG1 constant domain) (antibody)” yielded a pDCs (% of total cells remaining in culture), 4h, 10 µg/ml antibody on human PBMC (% of total cells remaining in culture) of 0.1; a pDCs (% of total cells remaining in culture), 24h, 10 µg/ml antibody on human PBMC (% of total cells remaining in culture) of 0.02; a pDCs (% of total cells remaining in culture), 48h, 10 µg/ml antibody on human PBMC (% of total cells remaining in culture) of 0.005.

(Values after patent publication EP2536430B1.)
